{"source": "the DeepSol protein solubility set", "data": [{"assay": "soluble on expression in E. coli; label from the status in PepcDB or PDB records", "values": [{"sequence": "MKIVILAPTITPIVSYGGLGDVMRDLPKFLKKGNEVVVLTLNHYNRYFTLPYEDIKKITVIYKGAKITFDVLRTKHPTTGVDLIVFSNESVNNLNVWDPIKYEIFADLVITYLDEVKDIDVVSGHDWMCGLAIAKCNDILDLPTTLTIHNEAFKGEMIEYKGEVMTFLELGIKYADAVNTVSPSHAEEIKNYPYIKKYLNNKPFCGILNGIDIDEYDPMKIIERMCNLSNNKLDPRNYAYISPYSAEDSHNIKPKIKYSWFYRGGVYEYVEDWNKIDKGISATDVEVHGGVDGDIETPLIGFVGRATHQKGFNTMFEAIPELLEKHDIRFVFLTKGDRDIEERLKNLANEHDGRILALIGYSLPLSSLVFAGSDWIIMPSYWEPCGLVQMEAMAYCTPVIATETGGLKDTIIPLHPNPYEHPNFDKATGVLFKVPDKVGFMWGVEHALNWTFYKLNEICMFMQYIRYKCPKHPYDENSPLSMMMKNCYYHVFRNLSWQNSPSIRKYKGLFGGAIYNHYLQP", "soluble on expression in E. coli": "soluble"}, {"sequence": "MSTRLTTLSHTSEGHRVSVHYGYDDKGRLTGERQTVENPETGELLWHHETGHAYNEQGLANRVTPDSLPPVEWLTYGSGYLAGMKLGGTPLLEFTRDRLHRETVRSFGSMAGSNAAYKLTSTYTPAGQLQSQHLNSLVYDRDYGWNDNGDLVRISGPRQTREYGYSATGRLESVRTLAPDLDIRIPYATDPAGNRLPDPELHPDSTLTVWPDNRIAEDAHYVYRHDEYGRLTEKTDRIPAGVIRTDDERTHHYHYDSQHRLVFYTRIQHGEPLVESRYLYDPLGRRMAKRVWRRERDLTGWMSLSRKPEVTWYGWDGDRLTTVQTDTTRIQTVYEPGSFTPLIRVETENGEREKAQRRSLAETLQQEGSENGHGVVFPAELVRLLDRLEEEIRADRVSSESRAWLAQCGLTVEQLARQVEPEYTPARKVHFYHCDHRGLPLALISEDGNTAWRGEYDEWGNQLNEENPHHLHQPYRLPGQQHDEESGLYYNRHRHYDPLQGRYITPDPIGLRGGWNMYQYPLNPIQVIDPMGLDAIENMTSGGLIYAVSGVPGLIAANSITNSAYQFGYDMDAIVGGAHNGAADAMRHCYLMCRMTKTFGSTIADVIGKNHEAAGDRQGQPAKERIMDLKNNTVGIACGDFSAKCSDACIEKYNTGQLFGLDGIKADNPIKAKQGSSDASNYLEHHHHHH", "soluble on expression in E. coli": "not soluble"}, {"sequence": "MTNFEYYRDFDDFQRRETINFFLSKFPLASQKQLQDFLEQARQAYVQLRQTNPAHLDWNQTLLYLAQKFLPEKQSEKDRLKKILVLQEQLKVRYEGEIKRQSQQNSELLIQLGQRDEEIIQMQQLFKEKERQLEVYQKQLNEAKEYNHKLEEHYNKTLEEALKEYEQQCTDAIHRRDEEIQAIFTSKLNEKNSEITQLQTYLQSAVDENEALQKQHKLVLFKNQKYEKMVSDLQVDLARIQEINNSLTSEKRDFQRANNDLVKQYNKLKNRLEQKLGEITNAQVNGQTHTVSLADTSQQFHRPQEAVIPQTQVISYTLDDMDDDMEVEETPPTTNKDLPRGATQPKRNSIKRVSKLID", "soluble on expression in E. coli": "soluble"}, {"sequence": "AIAQNDAGEFVDLYVPRKCSASNRIIGAKDHASIQMNVAEVSWEPGRREGCDICAGKAGCPIVEEPLG", "soluble on expression in E. coli": "soluble"}, {"sequence": "MGSDKIHHHHHHMPGICLCFQVHRPVILKRYTFFDIGRHHLYEDQEANRRILNQLADSCYLPANRLLLRLMEKSEGRFRVAFALSGAMIHLCEKYRQDIMEGFRRLADTGCVEFLNEADPHSLAFLFSPREFREQIEAHKKKIQELFGQNPTTFHCTDLIYSNELAGVAEEMGHSAFLAEGGQGLPGFQGPDFVYQPADCARLKLLLRNYHLSADIRLHFSDGSRNGHPFPAGWFAERILHSLENSGGQVVNLFLDYETSGKYLTPDRGNSEFLQALSAEMLGQPDFHFQLPAEIAQRYDPQARLDVTDSASGFDIHRNLTTVAGNAMQQDALRVLYDLEEAVRKRKDADCLAIWRMLQTSDYFNYMCTEGFADRVRRRDSGPYGSPYESYINYMNILEDFSRTLQS", "soluble on expression in E. coli": "not soluble"}, {"sequence": "GPGSMKQIAHYFRIKTAKHAVLEAGDNIRELCSVLSFPLIIKHVSGYSSVGMDKSCKVYDMDSLHSRVTRFIEQYQIALVEEFVVGDEATILVCADSTQPDGIRVFPPVMVQFPEGEDFKHFHLKWETYEGMEWRLMPEDDPALSQVLSTARTSFMHMMGGVGYGRVDVRIDRSTHDVVFLEINPNCGVMYPPGQEGSADWILRLTPGFNQREFTLLQIKEALRRNERMQPLFRCVYNPAQGYRMCATRDISAGSPIFEAEGQSVRLYTKPHVKATRGKEEYDQFAQKAWPLGGDGHYYALWDNEPTNWRTFSHSCVPNMNFGPNRSLNLYATRDIARGEELTMDYRLFRDETTPPFQCCCGSECCEGWIAMNGGKLTKEENGNNY", "soluble on expression in E. coli": "not soluble"}, {"sequence": "MYDAIVVGGGFSGLKAARDLTNAGKKVLLLEGGERLGGRAYSRESRNVPGLRVEIGGAYLHRKHHPRLAAELDRYGIPTAAASEFTSFRHRLGPTAVDQAFPIPGSEAVAVEAATYTLLRDAHRIDLEKGLENQDLEDLDIPLNEYVDKLDLPPVSRQFLLAWAWNMLGQPADQASALWMLQLVAAHHYSILGVVLSLDEVFSNGSADLVDAMSQEIPEIRLQTVVTGIDQSGDVVNVTVKDGHAFQAHSVIVATPMNTWRRIVFTPALPERRRSVIEEGHGGQGLKILIHVRGAEAGIECVGDGIFPTLYDYCEVSESERLLVAFTDSGSFDPTDIGAVKDAVLYYLPEVEVLGIDYHDWIADPLFEGPWVAPRVGQFSRVHKELGEPAGRIHFVGSDVSLEFPGYIEGALETAECAVNAILHSHHHHHH", "soluble on expression in E. coli": "soluble"}, {"sequence": "AHHHHHHASAKWVCKICGYIYDEDAGDPDNGISPGTKFEELPDDWVCPICGAPKSEFEKLEDGSFLPYLSSPYPLYLINLMLMECPPDIYSFSTQNSNNQLKGLFMFKKKEYDRWMVEAKRTLASAYSDLREGYYEWASFKAQQAAELAVKAILRGLSFAPIGHSITKLLRELAENNIKGPKKILYFAMKLDRNYIALRYPDAYPEGPH", "soluble on expression in E. coli": "soluble"}, {"sequence": "MSLGKEKKVYIFDSILRDGSQAQGVSFSVADKIKIVKKLDELGIDYIEAGNPSSNPKDREFFEEIRSLKLKHSKLCAFGSTRRAGAKAEEDEGIKKLVDSGVNVFSIFGKAWDFHVTDIIKTSIEENLNMIRDSIKYLVSLNKEVVFDAEHFFDGFKSNKEYAIEVLNTARLAGAKWIVLCDTNGGTMPNEVSDIVKYLVRDLNFDNLGVHFHDDSGMAVANSVVAVHYGVNHVQGTFTGVGERCGNANLSNIIANLSLKMGYNTIKNDKLEYLTVAFRYICEACNMTPNERVAYVGNCAFSHKGGMHIDAVRKNPKSFEHIDPSRVGNSRRILVSEVSGRSTILPALKRINPKIDKDSPETKAVVKRIKDLEYLGYQFEGAEGSFELLMRKELNVFRPSFELVEYKVIAERPYLSDLSATAIVKIMVNGKLETTAADGKGPVNALDKALRKALGVFYKELANVYLTDYKVRVISGTKATSAKIRVLIESTDGVSTWTTVGVSYDIIEASWLALVDSVEYKLIQCNKEENNNEKTDDYDTKNTEGHHHHHH", "soluble on expression in E. coli": "soluble"}, {"sequence": "MKPYQRQFIEFALNKQVLKFGEFTLKSGRKSPYFFNAGLFNTGRDLALLGRFYAEALVDSGIEFDLLFGPAYKGIPIATTTAVALAEHHDKDLPYCFNRKEAKDHGEGGSLVGSALQGRVMLVDDVITAGTAIRESMEIIQAHGATLAGVLISLDRQERGRGEISAIQEVERDYGCKVISIITLKDLIAYLEEKPDMAEHLAAVRAYREEFGV", "soluble on expression in E. coli": "soluble"}, {"sequence": "MSLKKIKRITAYQVDLPLHEGSYNWSGGKTVNIFDSTIVAIETDDGLIGYGECCPLGPFYLPSYAEGVRAGIKELGPHLIGLDATDHSYINMVMDQCLKGHPYVKSPIDIACWDIKGKAANMPISKLLGGTYDEDFVLYRAISQNEPDAMASNVKKYRDEGYRRFQLKVGGSPNEDIERIRSVASKLEDGDKLIADANTGWLAHEALRVIRAVNDIDVYIEQPCQSYEECLSVRQKTTHPFILDESVKNIGVLVRGYHDKAMDAVNIKISKFGGITKAVLARDLCTELGIAMTIEDSWGGDIVTATIAHLAHSTQPKLLFTATDFNSYVTVHIADGAPQRNNGRMKSSGEGHHHHHH", "soluble on expression in E. coli": "not soluble"}, {"sequence": "MKKQPGQQPLRSLSLTSAAKSLEEVEPEDDSKKGEPHAKAAGFGRGGGGGKRLPAARSTPMVIPNQVAAMPVQMTGFVQLATNNILSAIAHTNSLMVVQCIEPLEIFTGFETPNRYVVHDMYCRPLLYCMERSNVFARQYHGNNRKLSASTLDSCRRCSPMRTLTLFTFQWTCRQS", "soluble on expression in E. coli": "soluble"}, {"sequence": "MSLGNYNSQYENYYRNLQNRSIRTSSYYKSSGFNRKNLGEKIIKKIEFQLIGTLVLFLAVFSLREVITPETKAACNYIKYTVSYNYDYSQILSYIEGFNLNDVETYASKIDMDSLKNQSVDYIENLKARVTGEKTFGAKIKQEYCLPINGKIASHFKQKDKDVLGNQYLNNGVDIKANSDLDVKAIYDGTVEKVGEDKDFGKYVMVDNGDGVESKYSNMDSFEVQRGDGVTKGEVLGKVKKNDDASKSYLHFEIMYMGENQDPENYFTFKEGHHHHHH", "soluble on expression in E. coli": "not soluble"}, {"sequence": "MSLSLPSSHFVLIAEEENNSYWRLVEKGAREAENQFDVLVEYKAPKRSNPEEQLKLIDMAISAKVDGIIVQAVNEEMFTPLINKAVDAGIPVITIDTDAPRSNRVAYIGTDNYYSGTIAGKAMLDDMEGDIHVAVITGSLESSHQKLRVQGFIDMISNEPRVTLVEVEASNISRLEAELKAHQLMEEHPHINAFYGTSALDGIGIVAAAEKLGLDDLYVIAFDTLPENLSLLEQEKIDAIVVQEPFEMGLKSVELLLDIREGQPYSMTNHTHTSIIRKPDLSLLQEHQRLGDEGHHHHHH", "soluble on expression in E. coli": "soluble"}, {"sequence": "MEISGEEDKEEAVTLPKEVSKISISDGNKFVYQILNGPNEQCFENFRMDKPVFYKLCDLLQTRGLLRHTNRIKIEAQLAIFLFIIGHNLRTRAVQELFCYSGETISRHFNNVLNAVIAISKDFFQPNSNSDTLENDDPYFKDCVGVVDSFHIPVMVGVDEQGPFRNGNGLLTQNVLAASSFDLRFNYVLAGWEGSASDQQVLNAALTRRNKLQVPQGKYYIVDNKYPNLPGFIAPYHGVSTNSREEAKEMFNERHKLLHRAIHRTFGALKERFPILLSAPPYPLQTQVKLVIAACALHNYVRLEKPDDLVFRMFEEETLAEAGEDREVALEEEQVEIVGQEHGFRPEEVEDSLRLRDEIASELWNHYVQNMSTF", "soluble on expression in E. coli": "soluble"}, {"sequence": "MSLNTIDNKEHIIHYEHILKSTHTVNEVNTVSEVDAMKYSLIKLSAMNSYSDCQQAIEDIEADPENYTTETRAAARIGGHCELLKGAKEKIKALEKKADSFIPSDDSEEVNTVSETSQRTYGYGRVSTDEQTTSQQLTAIREAGHKVSDNRFIVDEGVSGGVCAMERPAFRNLVENKLEKGDTLVIAKLDRLGRDNIDVQQVVQMLTDKGIKLFILDLPVADLSSPEGKLMLQMFATFAEFEKNRISERIRDKLKQLKQEGKALGRPTKNVYDDVQELKAQGISQRTIADKLNVSLSTVRRNWVDTKRSLEVVTESGEGHHHHHH", "soluble on expression in E. coli": "not soluble"}, {"sequence": "MGGRSNSATTAAQQNAVLRIVVVGGGGVGKSALTIQFIQRYFVQDYDPTIEDSYTKQCFVDEDLCKLEILDTAGQEEFSTMREQYLRTGSGFLIVFAVTDRNSFEEVKKLHELICRIKDRDDFPIILVGNKADLENERHVARHEAEELAHRLSIPYLECSAKIRKNVDEAFFDIVRLVRKYQHDERMPIHPHDDRKLESPIKLKKKKNCRIQ", "soluble on expression in E. coli": "soluble"}, {"sequence": "MAVLIETTLGDLIIDLFVKERPRCSLNFLKLCKKKYYNLNQFHSIERNYVAQTGDPTGTGKGGESVYSDMYGEQGRYFEREDLPKMRHTRMGIVSFVNNGDNMLGSQFFITLGENLDYLDDQHTIFGQVTEGLETLEKLNEQLADTNNRPFKDIRISHTIVLDDPFDEDARISFPPRSPSPTYEMLVKTDQIALDEKEDEDEGKTAEEIAEELQQREMAEQAQILEMVGDLKDADEVPPENVLFVCKLNPVTTDEDLEIIFSRFGKINNCEIVRDRRSGDSLQYAFIEFDNAKSCEQAFFKMDNVLIDDRRIHVDFSQSVSQNYKYKPKSQQQEAPKRRQSPQRRPEVKRSHQRSPSPRRRRSPSPKKDKKRDYRREPARRRRSSDNHRDRDRSYRDNNRDRRDNHRDSDRDRRRHDRSPDRRRDRR", "soluble on expression in E. coli": "not soluble"}]}]}
